Measured values: patent US10654939 (BEIJING MABWORKS BIOTECH, dated 2020)

T1: recombinant rhesus CD40 (ECD)-hFc (rhesus monkey, UniProt P25942 21-193 (human entry))
T1 construct: Bought protein; also called rhCD40(ECd)-hFc; monkey CD40 (ECD)-hFc
T1 chain: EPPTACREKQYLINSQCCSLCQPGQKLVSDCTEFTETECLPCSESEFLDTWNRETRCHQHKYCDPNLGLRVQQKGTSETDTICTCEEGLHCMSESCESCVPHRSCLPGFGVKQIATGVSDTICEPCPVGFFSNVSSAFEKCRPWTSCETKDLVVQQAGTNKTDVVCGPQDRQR

T2: rhesus CD40 expressed on HEK293A cells (rhesus monkey, UniProt P25942 21-277 (human entry))
T2 construct: also called HEK293A/rhesusCD40
T2 chain: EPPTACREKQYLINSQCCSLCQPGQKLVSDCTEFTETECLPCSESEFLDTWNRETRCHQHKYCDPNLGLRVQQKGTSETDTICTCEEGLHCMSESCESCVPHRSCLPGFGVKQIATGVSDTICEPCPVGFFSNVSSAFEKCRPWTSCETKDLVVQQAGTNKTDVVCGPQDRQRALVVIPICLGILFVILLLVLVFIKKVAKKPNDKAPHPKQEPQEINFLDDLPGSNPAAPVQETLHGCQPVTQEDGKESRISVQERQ


How the values were obtained:
[1] = target: T3, recombinant human CD40 (ECD)-his (human, UniProt P25942 21-193); experiment: ELISA, hCD40(ECD)-his coated
T3 construct: Bought protein; also called hCD40(ECD)-his; TNFRSF5
Protocol: (§1) ELISA plates were coated with 500 ng/ml human CD40 (ECD)-his (Sino Biological, CN, Cat #: 10774-H08H) at 4° C. overnight. The wells were blocked with 200 μl of blocking buffer (PBS containing 1% BSA, 1% goat serum, and 0.05% Tween 20) for 2 hours at room temperature, and then 100 μl of serially diluted anti-CD40 antibodies (starting from 40000 ng/ml) were added to each well and incubated for 1 hour at RT. Plates were washed for 3 times with PBST (PBS+0.05% Tween 20), added with Goat-anti-mouse IgG-HRP (Simga, US, Cat #: A9309-1 ml) diluted 5000×, and incubated for 1 hour at RT. Plates were developed with freshly prepared Ultra-TMB (BD, US, Cat #: 555214) for 5 minutes at RT. Absorbance was read on a SpectraMax® i3X (Molecular Devies, US) at 450 nm.

[2] = target: T4, human CD40 expressed on cells (human, UniProt P25942 21-277); experiment: FACS, HEK293A/humanCD40 cells
T4 construct: also called HEK293A/humanCD40
Protocol: (§2) Example 5 Mouse Anti-CD40 Monoclonal Antibodies Bound to Human and Rhesus CD40 Expressed on HEK293A Cells To further determine whether anti-CD40 antibodies bound to human, monkey or mouse CD40 expressed on HEK293A cells, a cell-based binding assay by FACS was performed using the HEK293A cells stably overexpressing human, monkey or mouse CD40 as generated in Example 1, respectively. Briefly, 10^5 HEK293A cells were seeded into each well of the 96-well plates and serially diluted anti-CD40 antibodies were added to the plates. After incubated at 4° C. for 1 hour, plates were washed 3 times with PBST. Then, an APC coupled Goat Anti-Mouse IgG (BioLegen, US, Cat #: 405308) diluted 500× was added to the plates. After incubation at 4° C. for 1 hour, the plates were washed with PBS for 3 times and then cell fluorescence was monitored using a FACS machine (BD).

[3] = target: T4, human CD40 expressed on cells; experiment: cell-based or functional assay
mouse CD40-hFc = target: T5, mouse CD40-hFc (mouse, UniProt P27512 20-193); experiment: ELISA, muCD40-hFc coated
T5 construct: Bought protein; also called muCD40-hFc

[4] = target: T1, recombinant rhesus CD40 (ECD)-hFc; experiment: ELISA, rhCD40(ECD)-hFc coated
Protocol: as §1
Species-cross-reactivity of the 20 CD40 mAbs to monkey or mouse CD40 was further assessed by direct ELISA. Briefly, 500 ng/ml monkey CD40 (ECD)-hFc (Sino Biological, CN, Cat #: 90097-C02H) or mouse CD40-hFc (Sino Biological, CN, Cat #: 50324-M03H) was coated on 96-well ELISA plates followed by incubation with 100 μl of serially diluted anti-CD40 antibodies (starting from 40000 ng/ml). Goat anti-mouse IgG conjugated with HRP (Sigma, US, Cat #: A9309-1ml) was used then.

[5] = target: T2, rhesus CD40 expressed on HEK293A cells; experiment: FACS, HEK293A/rhesusCD40 cells
Protocol: as §2

[6] = target: T6, mouse CD40 expressed on HEK293A cells (mouse, UniProt P27512 20-289); experiment: FACS, HEK293A/mouseCD40 cells
T6 construct: also called HEK293A/mouseCD40
T6 sequence (P27512 20-289 limits assumed): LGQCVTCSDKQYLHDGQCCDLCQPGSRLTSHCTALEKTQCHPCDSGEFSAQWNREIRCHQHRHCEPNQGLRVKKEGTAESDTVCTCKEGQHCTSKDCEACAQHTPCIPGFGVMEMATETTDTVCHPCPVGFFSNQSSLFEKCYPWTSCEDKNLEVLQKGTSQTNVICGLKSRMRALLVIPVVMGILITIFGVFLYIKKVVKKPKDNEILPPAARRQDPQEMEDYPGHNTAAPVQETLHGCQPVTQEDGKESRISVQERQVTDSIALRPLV

T4 sequence (P25942 21-277 limits assumed): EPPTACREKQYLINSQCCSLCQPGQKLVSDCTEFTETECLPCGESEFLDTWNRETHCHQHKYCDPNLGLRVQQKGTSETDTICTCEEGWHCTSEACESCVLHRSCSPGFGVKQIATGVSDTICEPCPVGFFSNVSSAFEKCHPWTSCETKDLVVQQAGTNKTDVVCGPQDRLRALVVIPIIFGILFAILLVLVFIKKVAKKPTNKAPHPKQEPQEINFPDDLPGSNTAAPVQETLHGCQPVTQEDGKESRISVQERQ
T5 sequence (P27512 20-193): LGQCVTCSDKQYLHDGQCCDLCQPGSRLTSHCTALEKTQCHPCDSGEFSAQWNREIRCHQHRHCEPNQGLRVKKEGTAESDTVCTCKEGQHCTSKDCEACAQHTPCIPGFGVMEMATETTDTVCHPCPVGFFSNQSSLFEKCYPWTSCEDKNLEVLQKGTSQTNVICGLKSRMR
T3 sequence (P25942 21-193): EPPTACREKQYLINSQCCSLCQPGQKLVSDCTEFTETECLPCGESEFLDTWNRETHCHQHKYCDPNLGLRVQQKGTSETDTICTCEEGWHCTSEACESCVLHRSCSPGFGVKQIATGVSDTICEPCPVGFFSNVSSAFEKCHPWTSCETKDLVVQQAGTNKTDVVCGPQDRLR

Binder | EC50 [1] [µg/mL] | EC50 [2] [µg/mL] | HEK Blue EC50 [3] [µg/mL] | binding result (mouse CD40-hFc) | EC50 [4] [µg/mL] | EC50 [5] [µg/mL] | binding result [6]
92F6 (mouse monoclonal antibody) (antibody, V domains shown) VH: QVQLEQSGAEVVKPGASVKVSCTASGFNIKDTYMHWVKQRPEQGLEWIGRIDPANGNTNYDPKFQGKATITADTSSNTGYLQLSSLTSEDTAVYYCSRWGYDWYFDVWGAGTSVTVSS VL: DIVITQSTAIMSASPGEKVTITCSASSSVSYIHWFQQKPGTSPKLWIYTTANLASGVPARFSGSGSGTSYSLTISRMEAEDAATYYCQQRSNYPFTFGSGTKLEIK | 0.0291 | 0.0779 | 0.264 | no binding | 0.0365 | 0.13 | no binding
77D9 (mouse monoclonal antibody) (antibody, V domains shown) VH: QVKLEESGGGLVKPGGSLKLSCAASGFTFRNYAMSWVRQSPGERLEWVAEVSGSGYYTYYPDTVTGRFTISRDNANNTLYLEVSSLRSEDTAMYYCTSRAYWGQGTLVTVSA VL: IVMTQSPTLSLPVSLGDQASISCRSSQSIVLTNGNTYLEWYLQRPGQSPKLLIYKVSNRFSGVPDRFSGSGSGTDFTLKISRVEAEDLGVYYCFQGSHVPYTFGGGTKLEIK | 0.0214 | 0.033 | 0.0223 | no binding | 0.0206 | 0.117 | no binding
7B4 (mouse monoclonal antibody) (antibody, V domains shown) VH: EVQLQESGPGLVKPSQSLSLTCSVTGYSITTNYYWNWIRQFPGNKLEWMGYIKYDGSNNYNPSLKNRISITRDTSKNQFFLKLNSVTTEDTATYYCARLDYWGQGTSVTVSS VL: DIVLTQSPLSLPVSLGDQASISCRSSQSLENSNGNTFLNWFLQKPGQSPQLLIYKVSNRFSGVLDRFSGTGSGTDFTLTISRVEAEDLGVYFCLQVTHVPFTFGSGTKLEIK | 0.0153 | 0.0101 | 0.0261 | no binding | 0.0152 | 0.0159 | no binding
13A2 (mouse monoclonal antibody) (antibody, V domains shown) VH: EVKLEQSGPGLVKPSQSLSLTCSVTGYSITTNYYWNWIRQFPGNKLEWMGYINYDGSNNYNPSLKNRISITRDTSKNQFFLKLNSVTTEDTATYYCARLDYWGQGTSVTVSS VL: DIVMTQSPLSLPVSLGDQASISCRSSQSLENSNGNTFLNWFLQKPGQSPQLLIYKVSNRFSGVLDRFSGTGSGTDFTLTISRVEAEDLGVYFCLQVTHVPFTFGSGTKLEIK | 0.0207 | 0.0485 | 0.0126 | no binding | 0.0141 | 0.0843 | no binding

Next, values leading:

EC50 [1] [µg/mL] | EC50 [2] [µg/mL] | HEK Blue EC50 [3] [µg/mL] | binding result (mouse CD40-hFc) | EC50 [4] [µg/mL] | EC50 [5] [µg/mL] | binding result [6] | Binder
0.0318 | 0.203 | 0.14 | no binding | 0.0302 | 0.184 | no binding | 29A10 (mouse monoclonal antibody) (antibody, V domains shown) VH: QVKLEQSGGGLVKPGGSLKLSCAASGFTFSHYYMYWVRQTPEKRLEWVATISDAGSYTYYSDSVKGRFTISRDNAKNNLYLQMSSLKSDDTAMYFCARTYYRGDGGYWFFDVWGAGTAVTVSS VL: DIVITQSTSSLAVSVGEKVTMSCESSQSLLYSSNQKNYLAWYQQKPGQSPKLLIYWASTRESGVPDRFTASGSGTDFTLTISSVKAEDLAVYYCQQYYRSPLTFGAGTKLELK
0.0171 | 0.0155 | 0.0648 | no binding | 0.0201 | 0.0807 | no binding | 142F7 (mouse monoclonal antibody) (antibody, V domains shown) VH: EVQLEQSGAELVRPGTSVKVSCKASGYAFTNYLIEWGIQRPGQGLEWIGVINPGTGGTNYNEKFKDKATLTTDKSSSTAYMQLSSLTSDDSAVYFCARGGSGFAYWGQGTLVTVSA VL: DIVLTQTTSSLSASLGDRVTISCRASQDINNYLNWYQQKPDGTVKLLIYYTSRLHSGVPSRFSGSGSGTDYSLTISNLEQEDIATYFCQQGNTLPWTFGGGTKLEIK
0.0155 | 0.134 | 0.0422 | no binding | 0.016 | 0.137 | no binding | 50F6 (mouse monoclonal antibody) (antibody, V domains shown) VH: QVQLEQSGDDLVKPGASVKLSCKASGYTFTTYWINWIKQRPGQGLEWIGRISPGSGSTHYNEMFKGKATLTVDTSSSTAYIQLSSLSSEDSAVYFCTRNDYWGQGTTLTVSS VL: DIVLTQSPLSLPVSLGDQASISCRSSQSIVNSNGNTYLEWYLQKPGQSPKLLIYKVSNRFSGVPDRFSGSGSGTDFTLKISRVEAEDLGVYYCFQGSHVPLTFGAGTKLELK
0.0131 | 0.0682 | 0.0114 | no binding | 0.0129 | 0.044 | no binding | 16A6 (mouse monoclonal antibody) (antibody, V domains shown) VH: EVQLEQSGPGLVKPSQSLSLTCSVTGYSITTNYHWNWIRQFPGNKLEWMGYIKYDGSNNYNPSLKNRISITRDTSKNQFFLKLNSVTTEDTATYYCARLDYWGQGTSVTVSS VL: DIVLTQSTLSLSVSLGDQASISCRSSQSLENSNGNTFLNWFLQKPGQSPQLLIYKVSNRFSGVLDRFSGTGSGTDLTLTISRVEAEDLGVYFCLQVTHVPFTFGSGTKLEIK
